Reference: paper PMC2175199 (The Journal of Cell Biology, 2000)

T1: XSA2 (Xenopus laevis (endogenous in egg …, UniProt Q9DGN0 1-1194))
T1 sequence: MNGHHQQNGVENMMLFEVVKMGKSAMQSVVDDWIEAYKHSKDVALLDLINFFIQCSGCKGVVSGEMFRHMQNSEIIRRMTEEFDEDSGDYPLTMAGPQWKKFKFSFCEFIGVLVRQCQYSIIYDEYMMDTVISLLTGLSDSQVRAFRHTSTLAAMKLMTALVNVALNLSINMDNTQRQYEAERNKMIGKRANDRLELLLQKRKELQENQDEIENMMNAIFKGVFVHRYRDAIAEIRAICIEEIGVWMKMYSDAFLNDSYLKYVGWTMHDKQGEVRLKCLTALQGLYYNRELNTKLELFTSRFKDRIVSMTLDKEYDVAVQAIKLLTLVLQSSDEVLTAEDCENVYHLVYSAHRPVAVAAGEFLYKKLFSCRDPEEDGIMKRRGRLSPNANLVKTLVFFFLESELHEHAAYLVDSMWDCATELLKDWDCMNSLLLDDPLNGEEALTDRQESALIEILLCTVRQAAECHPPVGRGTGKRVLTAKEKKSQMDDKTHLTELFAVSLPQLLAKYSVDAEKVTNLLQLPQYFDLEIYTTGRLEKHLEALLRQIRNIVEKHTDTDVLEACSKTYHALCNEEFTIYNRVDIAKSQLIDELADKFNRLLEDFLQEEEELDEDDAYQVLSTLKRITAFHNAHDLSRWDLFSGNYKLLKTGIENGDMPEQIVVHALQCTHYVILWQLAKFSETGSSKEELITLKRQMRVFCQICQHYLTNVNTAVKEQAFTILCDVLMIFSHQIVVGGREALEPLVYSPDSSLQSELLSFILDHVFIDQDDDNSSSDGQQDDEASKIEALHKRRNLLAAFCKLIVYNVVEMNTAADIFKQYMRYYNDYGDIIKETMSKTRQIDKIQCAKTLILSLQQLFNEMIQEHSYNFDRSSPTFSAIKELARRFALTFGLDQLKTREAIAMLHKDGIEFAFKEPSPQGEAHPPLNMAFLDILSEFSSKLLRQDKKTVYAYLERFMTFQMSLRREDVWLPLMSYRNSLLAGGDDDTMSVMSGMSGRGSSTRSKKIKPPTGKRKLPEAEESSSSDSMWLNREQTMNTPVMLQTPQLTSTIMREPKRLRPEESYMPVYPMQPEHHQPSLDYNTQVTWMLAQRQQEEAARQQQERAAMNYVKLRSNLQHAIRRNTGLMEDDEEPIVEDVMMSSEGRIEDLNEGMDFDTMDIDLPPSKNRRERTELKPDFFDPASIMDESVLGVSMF

B1: XSMC1 (natural protein)
chain: MGFLKLIEIENFKSYKGRQIIGPFHRFTAIIGPNGSGKSNLMDAISFVLGEKTSNLRVKTLRDLIHGAPVGKPAANRAFVSMVYSEDSGEEKVFSRVIVGGSSEYKINNKVVQLSEYSDSLEKLGILIKARNFLVFQGAVESIAMKNPKERTALFEEISRSGELAQEYDKRKKEMVKAEEDTQFNYHRKKNIAAERKEAKQEKEEAERYQRLKDEVARAQIQLQLFKLYHNESEIEKLNKELSVKNKGIEKDKKHMDKVEEELKDKKKELGKMMREQQAIEKEIKEKDAELNQKLPQYIKAKENPSHKIKKFRAAKKSLQNAQKQYKKRKADMDELEKEMLSVEKARQEFEERMEEESQSQGRDLTLEENQVKKYHRLKEEASKRAATLAQELEKFNRDQKADQDRLDLEERKKVETEAKIKQKLRELEENQKRIEKLEEYIATSKQSLEEQKNLEETLTEEVEMAKRRIDEINSELNQVMEQLGDARIDRQESSRQQRKAEIMESIKRLYPGSVYGRLIDLCQPTQKKYQIAVTKVLGKNMDAIIVDSEKTGRDCIQYIKEQRGEPETFLPLDYLEVKPTDERLRELKGAKLVIDVIRYEPPHIKKALQYACGNALVCDNVEDARRIAFGGHQRHKTVALDGTLFQKSGVISGGASDLKAKARRWDEKAVDKLKEKKERLTEELKEQMKAKRKEAELRQVQSQAHGLQMRLKYSQSDLEQTKTRHLAMNMQEKSKLESELANFSPRINDIKRIIQSRDREMKDLKEKMNQVEDEVFEEFCREIGVRNIREFEEEKVKRQNEIAKKRLEFENQKTRLGIQLDYEKNQLKEDQGKVQTWEQSVKKDDNEIEKLKKEEQRHMKIIDETMAQLQDLKNQHLAKKSEVNDKNHLMEDIRKKLGSANKEVTHLQKEVTAIETKLEQKRSDRHNLLQACKMSDIKLPLSKGTMDDISQEEGSSQGEESASSSQRSSTVYAKEALIEIDYSDLSEDLKDAVADDDIKQEMSALHQKINEQQSILQRISAPNMKAMEKLESVRDKFQETSDEFEAARKRAKKAKQAFEQTKKERFDRFNACFESVATNIDEIYKALSRNSSAQAFLGPENPEEPYLDGINYNCVAPGKRFRPMDNLSGGEKTVAALALLFAIHSYKPSPFFVLDEIDAALDNTNIGKVANYIKEQSMSNFQAIVISLKEEFYTKAESLIGVYPEQGDCVISKVLTFDLTKYPDANPNPND
B2: XSMC3 (natural protein)
chain: MYIKQVIIQGFRSYRDQTIVDPFSSKHNVIVGRNGSGKSNFFYAIQFVLSDEFSHLRPEQRLALLHEGTGPRVISAFVEIIFDNSDNRLPIDKEEVSLRRVIGAKKDQYFLDKKMVTKNDVMNLLESAGFSRSNPYYIVKQGKINQMATAPDSQRLKLLREVAGTRVYDERKEESISLMKETEGKRDKINELLKYIEERLHTLEEEKEELAQYQKWDKMRRALEYTIYNQELNETRAKLDELSSKRETSGEKSRQLRDAQQDARDKMEEIERQVRELKSKISAMKEEKEQLSSERQEQIKQRTKLELKTKDLQDELAGNSEQRKRLLKERQKLLEKIEEKQKELAETEPKFSSVKQKEESGIARLAQATQERTDLYAKQGRGSQFTSKEERDKWIKKELKSLDQAINDKKRQIAAINKDLEETEVNKEKNLEQYTKLDQDLNEVKTRVEELDKKYYEVKNKKDELQSERNYLWREENAEQQSLAAKREDLEKKQQLLRAATGKAILNGIDSINKVLEHFRRKGINQHVINGYHGIVMNNFDCEPAFYTCVEVTAGNRLFYHIVESDEVSTKILMEFNKMNLPGEVTFLPLNKLDVRDTAYPETNDAIPMISKLRYNLRFDKAFKHVFGKTLICRSMEVSTQLARAFTMDCITLEGDQVSHRGALTGGYYDTRKSRLELQKDVRKVEDELHALEAKLNENLRRNIERINNEIDQLMNQMQQIETQQRKFKASRDSILSEMKMLKEKRQQSEKTFMPKQRSLQSLEASLHAMESTRESLKAELGTDLLSQLSLEDQKRVDALNDEIRQLQQENRQLLNERIKLEGTITRVETYLNENLRKRLDQVEQELNELRETEGGTVLTATTSELEAINKRVKDTLARSEGLDITIDKTEVESKDLVKSMDRWKNMEKDHMDAINHDTKELEKMTNRQGMLLKKKEECMKKIRELGSLPQEAFEKYQTLSLKQLFRKLEQCNTELKKYSHVNKKALDQFVNFSEQKEKLIKRQEELDRGHKSIMELMNVLELRKYEAIQLTFKQVSKNFSEVFQKLVPGGKATLVMKKGDVEGSQSQDEGEGSTQSSVPSVDQFTGVGIRVSFTGKQAEMREMQQLSGGQKSLVALALIFAIQKCDPAPFYLFDEIDQALDAQHRKAVSDMIMELASHAQFITTTFRPELLESADKFYGVKFRNKVSHIDVITAEQAKDFVEDDTTHG

Biological target: T1, XSA2
Assay: co-IP

Row | Binder | percent depleted from the extract by anti-XSA2 [%]
1 | B1 | ~5
2 | B2 | ~5
